Laboratory results from patent US20200317768A1 (published 2020).

T1: human FcγRIIaH extracellular domain, C-terminal His-tag (human, UniProt P12318 34-217)
T1 construct: Soluble extracellular domain expressed in FreeStyle 293 cells; also called FcgRIIaH; human FcγRIIa (type H); not shown: His-tag added to the C-terminus
T1 sequence: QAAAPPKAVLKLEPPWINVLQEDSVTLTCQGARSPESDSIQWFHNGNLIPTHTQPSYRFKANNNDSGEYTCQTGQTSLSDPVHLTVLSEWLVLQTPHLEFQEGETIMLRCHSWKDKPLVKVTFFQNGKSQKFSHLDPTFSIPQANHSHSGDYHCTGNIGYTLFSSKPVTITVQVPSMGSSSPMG

T2: human FcγRIIaR extracellular domain, C-terminal His-tag (human, UniProt P12318 34-217)
T2 construct: Soluble extracellular domain expressed in FreeStyle 293 cells; also called FcgRIIaR; human FcγRIIa (type R); not shown: His-tag added to the C-terminus
T2 chain: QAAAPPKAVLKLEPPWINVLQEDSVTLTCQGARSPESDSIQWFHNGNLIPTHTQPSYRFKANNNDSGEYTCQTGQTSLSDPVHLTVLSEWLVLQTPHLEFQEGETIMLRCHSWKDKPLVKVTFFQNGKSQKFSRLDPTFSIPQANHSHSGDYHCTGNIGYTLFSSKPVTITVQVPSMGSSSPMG

T3: human FcγRIIb extracellular domain, C-terminal His-tag (human, UniProt P31994 43-217)
T3 construct: Soluble extracellular domain expressed in FreeStyle 293 cells; also called FcgRIIb; not shown: His-tag added to the C-terminus
T3 sequence: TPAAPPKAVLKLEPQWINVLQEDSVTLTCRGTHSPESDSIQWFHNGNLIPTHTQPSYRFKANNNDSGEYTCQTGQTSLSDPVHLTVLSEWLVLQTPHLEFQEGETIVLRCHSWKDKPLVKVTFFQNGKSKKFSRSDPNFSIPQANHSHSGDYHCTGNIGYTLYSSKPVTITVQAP


What was measured:
[1] = target: T1, human FcγRIIaH extracellular domain, …; test: SPR (BIACORE); KD of SG1 divided by KD of the variant
Protocol: (§1) The kinetic analysis of interactions between these antibodies and FcγR was carried out using BIACORE® T200 or BIACORE® 4000 (GE Healthcare). HBS-EP+ (GE Healthcare) was used as the running buffer, and the measurement temperature was set to 25° C. A chip produced by immobilizing Protein A. Protein A/G or mouse anti-human IgG kappa light chain (BD Biosciences) onto a Series S Sensor Chip CM4 or CM5 (GE Healthcare) by the amine-coupling method was used. […] After the measurement, the antibody captured on the chip was washed off by allowing reaction with 10 mM glycine-HCl, pH1.5 and 25 mM NaOH so that the chip was regenerated and used repeatedly. The sensorgrams obtained as measurement results were analyzed by the 1:1 Langmuir binding model using the BIACORE® Evaluation Software to calculate the binding rate constant ka (L/mol/s) and dissociation rate constant kd (l/s), and the dissociation constant KD (mol/L) was calculated from these values. […] Regarding such interactions, KD values were calculated using the following 1:1 binding model described in BIACORE® T100 Software Handbook BR1006-48 Edition AE.
(§2) Furthermore, the substitutions used in Example 29 for improving antibody half-life and reducing binding to rheumatoid factor were introduced into human FcγRIIb-enhanced Fc variants and their affinity against human FcγRs were analyzed (Table 29). In this SPR analysis, all the data were obtained using mouse anti-human IgG kappa light chain for capturing the antibodies of interest.

[2] = target: T2, human FcγRIIaR extracellular domain, …; test: as above
Protocol: as §1, §2

[3] = target: T3, human FcγRIIb extracellular domain, …; test: as above
Protocol: as §1, §2

[4] = target: T4, human FcγRIIIaV extracellular domain, C-terminal His-tag (human, UniProt P08637 17-208); test: as above
T4 construct: Soluble extracellular domain expressed in FreeStyle 293 cells; also called FcgRIIIaV; not shown: His-tag added to the C-terminus
Protocol: as §1, §2

[5] = target: T1, human FcγRIIaH extracellular domain, …; test: SPR (BIACORE), antibody captured by mouse anti-human IgG kappa light chain, FcgR extracellular domain as analyte, 25 C
Protocol: as §1, §2

[6] = target: T2, human FcγRIIaR extracellular domain, …; test: as above
Protocol: as §1, §2

[7] = target: T3, human FcγRIIb extracellular domain, …; test: as above
Protocol: as §1, §2

[8] = target: T4, human FcγRIIIaV extracellular domain, …; test: as above
Protocol: as §1, §2

T4 sequence (P08637 17-208 F176V): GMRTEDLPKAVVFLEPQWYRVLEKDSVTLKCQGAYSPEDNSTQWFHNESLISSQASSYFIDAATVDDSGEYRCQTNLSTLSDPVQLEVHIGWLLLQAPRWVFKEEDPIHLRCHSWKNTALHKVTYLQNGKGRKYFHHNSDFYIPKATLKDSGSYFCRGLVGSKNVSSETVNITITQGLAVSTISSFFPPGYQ

| Binder | KD fold for humanFcgRs (SG1 = 1) [1] | KD fold for humanFcgRs (SG1 = 1) [2] | KD fold for humanFcgRs (SG1 = 1) [3] | KD fold for humanFcgRs (SG1 = 1) [4] | Kd [5] | Kd [6] | Kd [7] | Kd [8] |
| --- | --- | --- | --- | --- | --- | --- | --- | --- |
| MS103240H795-SG1/M103202L1045-SK1 (antibody, human IgG1, kappa, Parent constant region SG1 (human IgG1-like); also called MS1032LO19-SG1; copies: 2 + 2) heavy: not shown light: DIVMTQSPATLSLSPGERATLSCTTSQSVYHENWLSWFQQKPGQPPKLLIYWASTLAYGVPSRFSGSGSGTDFTLTISSLQPEDAATYYCAGGYGGGRYAFGQGTKVEIKRTVAAPSVFIFPPSDEQLKSGTASVVCLLNNFYPREAKVQWKVDNALQSGNSQESVTEQDSKDSTYSLSSTLTLSKADYEKHKVYACEVTHQGLSSPVTKSFNRGEC | 1 fold | 1 fold | 1 fold | 1 fold | 0.97 µM | 1.2 µM | 4.7 µM | 0.72 µM |
| MS103240H795-TT33/M103202L1045-SK1 (antibody, human IgG1, kappa, copies: 2 + 2) heavy: QVQLVESGGGLVQPGGSLRLSCAVSGIDLSHDDISWVRQAPGKGLEWVSIISYAGSTYYASWAKGRLTISKDTSKNQVVLTMTNMDPVDTATYYCARGVPAYSHGGDLWGQGTLVTVSSASTKGPSVFPLAPSSKSTSGGTAALGCLVKDYFPEPVTVSWNSGALTSGVHTFPAVLQSSGLYSLSSVVTVPSSSLGTQTYICNVNHKPSNTKVDKKVEPKSCDKTHTCPPCPAPEYLGGDSVFLFPPKPKDVLMISRTPEVTCVVIDVSHEDPEVKFNWYVDGVEVHNAKTKPREEQYNSTYRVVSVLPVLHRDWLNGKEYKCKVSNKALPKPIEKTISKAKGQPREPQVYTLPPSREEMTKNQVSLTCLVKGFYPSDIAVEWESNGQPENNYKTTPPVLDSDGSFFLYSKLTVKKSRWQQGNVFSCSVMHEALHNHYTQKSLSLSP light: DIVMTQSPATLSLSPGERATLSCTTSQSVYHENWLSWFQQKPGQPPKLLIYWASTLAYGVPSRFSGSGSGTDFTLTISSLQPEDAATYYCAGGYGGGRYAFGQGTKVEIKRTVAAPSVFIFPPSDEQLKSGTASVVCLLNNFYPREAKVQWKVDNALQSGNSQESVTEQDSKDSTYSLSSTLTLSKADYEKHKVYACEVTHQGLSSPVTKSFNRGEC | 0.028 fold | 0.05 fold | 15.7 fold | 0.002 fold | 35 µM | 23 µM | 0.3 µM | 400 µM |
| MS103240H795-TT66/M103202L1045-SK1 (antibody) heavy: QVQLVESGGGLVQPGGSLRLSCAVSGIDLSHDDISWVRQAPGKGLEWVSIISYAGSTYYASWAKGRLTISKDTSKNQVVLTMTNMDPVDTATYYCARGVPAYSHGGDLWGQGTLVTVSSASTKGPSVFPLAPSSKSTSGGTAALGCLVKDYFPEPVTVSWNSGALTSGVHTFPAVLQSSGLYSLSSVVTVPSSSLGTQTYICNVNHKPSNTKVDKKVEPKSCDKTHTCPPCPAPELLGGDSVFLFPPKPKDVLMISRTPEVTCVVVDVSHEDPEVKFNWYVDGVEVHNAKTKPREEQYNSTYRVVSVLPVLHRDWLNGKEYKCKVSNKALPKPIEKTISKAKGQRREPQVYTLPPSREEMTKNQVSLTCLVKGFYPSDIAVEWESNGQPENNYKTTPPVLDSDGSFFLYSKLTVDKSRWQQGNVFSCSVMHEALHAHYTRKELSLSP light: DIVMTQSPATLSLSPGERATLSCTTSQSVYHENWLSWFQQKPGQPPKLLIYWASTLAYGVPSRFSGSGSGTDFTLTISSLQPEDAATYYCAGGYGGGRYAFGQGTKVEIKRTVAAPSVFIFPPSDEQLKSGTASVVCLLNNFYPREAKVQWKVDNALQSGNSQESVTEQDSKDSTYSLSSTLTLSKADYEKHKVYACEVTHQGLSSPVTKSFNRGEC | 0.007 fold | 0.04 fold | 4.7 fold | 0.001 fold | 130 µM | 32 µM | 1 µM | 590 µM |

Next, values leading:

| KD fold for humanFcgRs (SG1 = 1) [1] | KD fold for humanFcgRs (SG1 = 1) [2] | KD fold for humanFcgRs (SG1 = 1) [3] | KD fold for humanFcgRs (SG1 = 1) [4] | Kd [5] | Kd [6] | Kd [7] | Kd [8] | Binder |
| --- | --- | --- | --- | --- | --- | --- | --- | --- |
| 0.005 fold | 0.02 fold | 4.9 fold | 0.001 fold | 210 µM | 61 µM | 0.96 µM | 480 µM | MS103240H795-TT68/M103202L1045-SK1 (antibody, copies: 2 + 2) heavy: QVQLVESGGGLVQPGGSLRLSCAVSGIDLSHDDISWVRQAPGKGLEWVSIISYAGSTYYASWAKGRLTISKDTSKNQVVLTMTNMDPVDTATYYCARGVPAYSHGGDLWGQGTLVTVSSASTKGPSVFPLAPSSKSTSGGTAALGCLVKDYFPEPVTVSWNSGALTSGVHTFPAVLQSSGLYSLSSVVTVPSSSLGTQTYICNVNHKPSNTKVDKKVEPKSCDKTHTCPPCPAPELLGGDSVFLFPPKPKDVLMISRTPEVTCVVVDVSHEDPEVKFNWYVDGVEVHNAKTKPREEQYNSTYRVVSVLPVLHRDWLNGKEYKCKVSNKALPKPIEKTISKAKGQPREPQVYTLPPSREEMTKNQVSLTCLVKGFYPSDIAVEWESNGQPENNYKTTPPVLDSDGSFFLYSKLTVKKSRWQQGNVFSCSVMHEALHAHYTRKELSLSP light: DIVMTQSPATLSLSPGERATLSCTTSQSVYHENWLSWFQQKPGQPPKLLIYWASTLAYGVPSRFSGSGSGTDFTLTISSLQPEDAATYYCAGGYGGGRYAFGQGTKVEIKRTVAAPSVFIFPPSDEQLKSGTASVVCLLNNFYPREAKVQWKVDNALQSGNSQESVTEQDSKDSTYSLSSTLTLSKADYEKHKVYACEVTHQGLSSPVTKSFNRGEC |
| 0.008 fold | 0.04 fold | 3.9 fold | 0.001 fold | 120 µM | 28 µM | 1.2 µM | 610 µM | MS103240H795-TT67/M103202L1045-SK1 (antibody) heavy: QVQLVESGGGLVQPGGSLRLSCAVSGIDLSHDDISWVRQAPGKGLEWVSIISYAGSTYYASWAKGRLTISKDTSKNQVVLTMTNMDPVDTATYYCARGVPAYSHGGDLWGQGTLVTVSSASTKGPSVFPLAPSSKSTSGGTAALGCLVKDYFPEPVTVSWNSGALTSGVHTFPAVLQSSGLYSLSSVVTVPSSSLGTQTYICNVNHKPSNTKVDKKVEPKSCDKTHTCPPCPAPELLGGDSVFLFPPKPKDVLMISRTPEVTCVVVDVSHEDPEVKFNWYVDGVEVHNAKTKPREEQYNSTYRVVSVLPVLHRDWLNGKEYKCKVSNKALPKPIEKTISKAKGQRREPQVYTLPPSREEMTKNQVSLTCLVKGFYPSDIAVEWESNGQPENNYKTTPPVLDSDGSFFLYSKLTVDKSRWQQGNVFSCSVLHEALHAHTTRKELSLSP light: DIVMTQSPATLSLSPGERATLSCTTSQSVYHENWLSWFQQKPGQPPKLLIYWASTLAYGVPSRFSGSGSGTDFTLTISSLQPEDAATYYCAGGYGGGRYAFGQGTKVEIKRTVAAPSVFIFPPSDEQLKSGTASVVCLLNNFYPREAKVQWKVDNALQSGNSQESVTEQDSKDSTYSLSSTLTLSKADYEKHKVYACEVTHQGLSSPVTKSFNRGEC |
